Experimental data reported in article doi:10.1101/2025.05.16.654433.

B1: APE-1::GFP::3xflag (endogenous APE-1 tagged with 3xflag and GFP) [C. elegans] / HaloTag::GSP-2 (endogenously HaloTagged GSP-2 labeled with JF646) [modified: far-red dye JF646 on the HaloTag; far-red dye JF646 on the HaloTag] … (parent)
chain 1: MVTTSSGGGIGYPANNGVTQVSLIHSSDSVRTVSTAPIYRPTSSMASTMAHKSSTAPFISANQRMSKPPVRVVAQPPPPHPQALSQQYHQQNPMMMYSAPNTRPHVIPTMQVQPTMAAQIKRNNPVNAQFQNPSEMIADYGVKPQSVEMVQRVRAVRRQVADEETELRRLRELEHETAQLQNKNYGRERELNVQGSMLKEAQLELRNASMRAQSLNKHLEEMYRRRQTAAAAALVEQRKMQQHQILLARAANQVSTQEVIRPRASVEPFQVNNTQQQQPSPQMMKSEEFSEKRDLNGQTGSYDAIDGSGDHQKIPTEPSYLAPCKENQQKYSELSKMASTDPHSNHSSPSTSSQKAPTLITFSPPSFEQKINSSTMTRDSPFVERPTSFGDSLDESRLRSGKTDLVSLRSDSLKATKRRSWAASEGTSMSEAEMIHRLLDEQRRGRSHFIPQLPTSQEEPSAITSETYAEEVVNSESKQVATSSDSTNNLELPTEQMVLGSDTTTEEDASSCSTRSDDGQNLEMEVAIERRTVKGILRRPNEKMNKGRIEFDPLALLLDAALEGELDLVRSSASKLTDVSQANDEGITALHNAICAGHYEIVRFLIENDADVNAQDSDGWTPLHCAASCNNLPMVRQLVEGGGCVLASTLSDMETPVEKCEEDEDGYDGCLKYLSAAHNSTGSINTGKVYAAYGYEAAFEDELSFDAGDELTVIEKDKVDKNWWTCEKNNGEKGQVPRTYLALYPSLKYRKKLNFVMFDLPLESNNNVE
chain 2: MDVEKLNLDNIISRLLEVRGSKPGKNVQLTESEIKGLCQKSREIFLSQPILLELEAPLKICGDVHGQYYDLLRLFEYGGFPPESNYLFLGDYVDRGKQSLETICLLLAYKIKYPENFFLLRGNHECASINRIYGFYDECKRRYNIKLWKTFTDCFNCLPVAAIIDEKIFCCHGGLSPDLQSMEQIRRIMRPTDVPDQGLLCDLLWSDPDKDVTGWGENDRGVSFTFGPEVVAKFLHKHDLDLICRAHQVVEDGYEFFAKRQLVTLFSAPNYCGEFDNAGSMMTVDETLMCSFQILKPADKKKYPYGAGGVGSNRPVTPPRNAPAAQPKKGAKK

Variants of: B1
Test: single molecule photobleaching analysis (TIRF microscopy) on anti-flag functionalized coverslips
Details: with HaloTag::GSP-2 (endogenously HaloTagged GSP-2 labeled with JF646) [modified: far-red dye JF646 on the HaloTag, whole worm lysates, HaloTag::GSP-2 labeled with JF646, p=0.531 vs APE-1, read off a plot

screen value [%] | Variant
38 | chain 1 H591Y

Same assay, conditions: with HaloTag::GSP-2 (endogenously HaloTagged GSP-2 labeled with JF646) [modified: far-red dye JF646 on the HaloTag, whole worm lysates, HaloTag::GSP-2 labeled with JF646, p = 0.008 vs APE-1, read off a plot

screen value [%] | Variant
34 | chain 1 N583K
